# Test results reported in US20250296971A1, “GASTRIC INHIBITORY PEPTIDE RECEPTOR LIGANDS” (priority 2021, published 2025).
# *1 amine or outer side, *2 acyl side, *3 side chain or, on linkers, in order; H or OH if unused. Bridges are numbered along the chain shown (N, C = ends). Primed or numbered codes have the meaning given here. Where no end group is shown, it is not given here. Side-chain parts run from the residue outwards. [ ]: non-standard residue; d: D form. The star is where a group is joined. Ttds = 1,13-diamino-4,7,10-trioxatridecan-succinamic acid, NCCCOCCOCCOCCCNC(=O)CCC(=O)*; DOTA(Ga) = O=C1CN2CCN3CCN(CC(=O)*)CCN(CC2)CC(=O)[O][Ga]([O]1)[O]C(=O)C3; DOTA(In) = O=C1CN2CCN3CCN(CC(=O)*)CCN(CC2)CC(=O)[O][In]([O]1)[O]C(=O)C3; DOTA(Lu) = O=C1CN2CCN3CCN(CC(=O)*)CCN(CC2)CC(=O)[O][Lu]([O]1)[O]C(=O)C3; NH(1-deoxy-D-glucityl) = OC[C@@H](O)[C@@H](O)[C@H](O)[C@@H](O)CN*; dE(AGLU) = D-glutamic acid bearing 1-amino-1-deoxy-D-glucitol; Pro(trans-4-NH2) = O=C([C@@H]1C[C@@H](N[*:3])CN1[*:1])[*:2]; DOTA = O=C(O)CN1CCN(CC(=O)O)CCN(CC(=O)*)CCN(CC(=O)O)CC1; 2Lut = 2,6-lutidylidene bridge between two thiols; Trp(5-Br) = N[C@@H](Cc1c[nH]c2ccc(Br)cc12)C(=O)O; Trp(5-Cl) = N[C@@H](Cc1c[nH]c2ccc(Cl)cc12)C(=O)O; Pyridine(2,6-diCH2) = c1cc(C[*:1])nc(C[*:2])c1; 2Lut″ = 2,6-lutidylidene linking two thiols; APAc = 4-amino-1-carboxymethylpiperidine; Pro(4S-NH2) = N[C@@H]1CN[C@H](C(=O)O)C1; mXylylene = c1cc(C[*:1])cc(C[*:2])c1; Glutaryl = O=C(CCCC(=O)[*:2])[*:1]; AGLU = 1-amino-1-deoxy-D-glucitol; dDap(NTASEROL) = not defined here; Cya = N[C@@H](CS(=O)(=O)O)C(=O)O; Hyp = O=C(O)[C@@H]1C[C@@H](O)CN1; Cysteamide = C(CS[*:3])N[*:1]; dGlu(AGLU) = not defined here; Suc = O=C(CCC(=O)[*:2])[*:1]; GLUSEROL = not defined here; NTASEROL = not defined here; hSer = N[C@@H](CCO)C(=O)O; Api = NC1(C(=O)O)CCNCC1; Thp = NC1(C(=O)O)CCOCC1; Aib = CC(C)(N)C(=O)O
# Tests used:
# [1] = molecular target: biotinylated extracellular domain of the human GIP receptor (bioGIPR) (human) (UniProt P48546); test: SPR single cycle kinetics, bioGIPR captured on chip; category A: pKD >9.0
# [2] = molecular target: human Gastric Inhibitory Peptide Receptor (human) (UniProt P48546); test: FACS competition with GIP-057 on CHO-K1-hGIPR cells; pIC50 category A: >8.0
# [3] = molecular target: biotinylated extracellular domain of the human GIP receptor (bioGIPR) (human) (UniProt P48546); test: SPR single cycle kinetics, bioGIPR captured on chip; category A: t1/2 >15 min
# [4] = molecular target: human Gastric Inhibitory Peptide Receptor (GIPR) (human) (UniProt P48546); test: FACS competition vs biotinylated GIP-057 on CHO-K1-hGIPR cells; category A: pIC50 >8.0
# Chain of human Gastric Inhibitory Peptide Receptor (GIPR) (human) (P48546 22-466 limits assumed): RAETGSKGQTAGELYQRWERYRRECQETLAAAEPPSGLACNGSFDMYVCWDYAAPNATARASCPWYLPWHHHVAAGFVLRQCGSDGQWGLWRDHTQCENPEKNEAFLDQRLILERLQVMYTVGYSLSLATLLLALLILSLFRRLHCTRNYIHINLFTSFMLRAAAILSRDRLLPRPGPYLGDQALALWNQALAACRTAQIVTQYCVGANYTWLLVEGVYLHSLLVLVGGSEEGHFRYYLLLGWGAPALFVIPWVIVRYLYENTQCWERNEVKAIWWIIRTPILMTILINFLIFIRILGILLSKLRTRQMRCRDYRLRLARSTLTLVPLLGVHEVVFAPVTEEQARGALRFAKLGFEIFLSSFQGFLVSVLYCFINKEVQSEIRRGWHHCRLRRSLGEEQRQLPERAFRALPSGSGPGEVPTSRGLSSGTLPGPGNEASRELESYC
# Chain of biotinylated extracellular domain of the human GIP receptor (bioGIPR) (human) (P48546 24-138 limits assumed): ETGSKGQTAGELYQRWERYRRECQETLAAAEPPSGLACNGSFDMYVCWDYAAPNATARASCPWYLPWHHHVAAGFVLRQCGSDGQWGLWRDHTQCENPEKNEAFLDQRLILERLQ
# Chain of human Gastric Inhibitory Peptide Receptor (human) (P48546 22-466 limits assumed): as the sequence (P48546 22-466 limits assumed) above
Binder,pKD [1],pIC50 [2],t1/2 [3],pIC50 [4]
DWXXEXCXLIC (AGLU-Glutar; 5Clw; Hyp; D-leu; Apc(InDOTA); 2Lut bridge Cys-Cys; APAc; D-glu(AGLU); C-term NH2) [AGLU-Glutar-Asp-Trp-5Clw-Hyp-Glu-leu-[Cys(2Lut)-Apc(InDOTA)-Leu-Ile-Cys]-APAc-glu(AGLU)-NH2],> 9 pkd,> 8 pic50,> 15 min,–
W[Trp(5-Cl)][Pro(trans-4-NH2)]E[dL]C[Api]LIC-{APAc-dE(AGLU)-K(DOTA)-NH2} (linker 6-10 via 2Lut; not fully specified (N-terminus); printed as HO-Succinyl-Trp-5Clw-Tap-Glu-leu-[Cys(2Lut)-Apc-Leu-Ile-Cys]-APAc-glu(AGLU)-Lys(DOTA)-NH2) [HO-Succinyl-Trp-5Clw-Tap-Glu-leu-[Cys(2Lut)-Apc-Leu-Ile-Cys]-APAc-glu(AGLU)-Lys(DOTA)-NH2],> 9 pkd,> 8 pic50,> 15 min,–
"{AGLU-Glutaryl}-DW[Trp(5-Cl)][Pro(trans-4-NH2)]E[dL]C[Api](DOTA(Lu))LIC-{APAc-dE(AGLU)-NH2} (linker 7-11 via Pyridine(2,6-diCH2)) [AGLU-Glutar-Asp-Trp-5Clw-Tap-Glu-leu-[Cys(2Lut)-Apc(LuDOTA)-Leu-Ile-Cys]-APAc-glu(AGLU)-NH2]",> 9 pkd,> 8 pic50,> 15 min,–
"{AGLU-Glutaryl}-DW[Trp(5-Cl)][Pro(trans-4-NH2)]E[dL]C[Api](DOTA(Ga))LIC-{APAc-dE(AGLU)-NH2} (linker 7-11 via Pyridine(2,6-diCH2)) [AGLU-Glutar-Asp-Trp-5Clw-Tap-Glu-leu-[Cys(2Lut)-Apc(GaDOTA)-Leu-Ile-Cys]-APAc-glu(AGLU)-NH2]",> 9 pkd,> 8 pic50,> 15 min,–
"{AGLU-Glutaryl}-DW[Trp(5-Cl)][Pro(trans-4-NH2)]E[dL]C[Api](DOTA)LIC-{APAc-dE(AGLU)-NH2} (linker 7-11 via Pyridine(2,6-diCH2)) [AGLU-Glutar-Asp-Trp-5Clw-Tap-Glu-leu-[Cys(2Lut)-Apc(DOTA)-Leu-Ile-Cys]-APAc-glu(AGLU)-NH2]",> 9 pkd,> 8 pic50,> 15 min,–
Suc-W[Trp(5-Cl)][Hyp]E[dL]C[Thp]LIC-{APAc-dGlu(AGLU)-Lys(DOTA)-NH2} (linker 6-10 via 2Lut; reading uncertain; also: printed as HO-Succinyl-Trp-5Clw-Hyp-Glu-leu-[Cys(2Lut)-Thp-Leu-Ile-Cys]-APAc-glu(AGLU)-Lys(DOTA)-NH2) [HO-Succinyl-Trp-5Clw-Hyp-Glu-leu-[Cys(2Lut)-Thp-Leu-Ile-Cys]-APAc-glu(AGLU)-Lys(DOTA)-NH2],> 9 pkd,> 8 pic50,> 15 min,–
"Ac-[Cya]W[Trp(5-Cl)][Hyp]E[dL]C[Aib]LI[Cysteamide] (linker (positions not given here) via Pyridine(2,6-diCH2); not fully specified (bridges); printed as Ac-Cya-Trp-5Clw-Hyp-Glu-leu-[Cys(2Lut)-Aib-Leu-Ile-AET]) [Ac-Cya-Trp-5Clw-Hyp-Glu-leu-[Cys(2Lut)-Aib-Leu-Ile-AET]]",> 9 pkd,> 8 pic50,> 15 min,–
"{NTASEROL}-DW[Trp(5-Cl)][Pro(trans-4-NH2)]E[dL]C[Api](DOTA)LIC-{APAc-dDap(NTASEROL)-NH2} (linker 7-11 via Pyridine(2,6-diCH2); reading uncertain) [NTASEROL-Asp-Trp-5Clw-Tap-Glu-leu-[Cys(2Lut)-Apc(DOTA)-Leu-Ile-Cys]-APAc-dap(NTASEROL)-NH2]",> 9 pkd,–,> 15 min,> 8 pic50
"{AGLU-Glutaryl-APAc}-DW[Trp(5-Cl)][Pro(trans-4-NH2)]([Glutaryl-NH(1-deoxy-D-glucityl)])E[dL]C[Api](DOTA)LIC-{APAc-dE(AGLU)-NH2} (linker 7-11 via Pyridine(2,6-diCH2))",> 9 pkd,> 8 pic50,> 15 min,–
"{AGLU-Glutaryl}-DW[Trp(5-Cl)][Pro(trans-4-NH2)]E[dL]C[Api](DOTA)LIC-{APAc-GLUSEROL} (linker 7-11 via Pyridine(2,6-diCH2); reading uncertain) [AGLU-Glutar-Asp-Trp-5Clw-Tap-Glu-leu-[Cys(2Lut)-Apc(DOTA)-Leu-Ile-Cys]-APAc-GLUSEROL]",> 9 pkd,–,> 15 min,> 8 pic50
"{AGLU-Glutaryl}-DW[Trp(5-Cl)][Pro(trans-4-NH2)]E[dL]C[Api](DOTA(In))LIC-{APAc-dE(AGLU)-NH2} (linker 7-11 via Pyridine(2,6-diCH2)) [AGLU-Glutar-Asp-Trp-5Clw-Tap-Glu-leu-[Cys(2Lut)-Apc(InDOTA)-Leu-Ile-Cys]-APAc-glu(AGLU)-NH2]",> 9 pkd,> 8 pic50,> 15 min,–
"{AGLU-Glutaryl}-DW[Trp(5-Cl)][Hyp]E[dL]C[Api](DOTA(Lu))LIC-{APAc-dE(AGLU)-NH2} (linker 7-11 via Pyridine(2,6-diCH2)) [AGLU-Glutar-Asp-Trp-5Clw-Hyp-Glu-leu-[Cys(2Lut)-Apc(LuDOTA)-Leu-Ile-Cys]-APAc-glu(AGLU)-NH2]",> 9 pkd,> 8 pic50,> 15 min,–
"{AGLU-Glutaryl}-DW[Trp(5-Cl)][Hyp]E[dL]C[Api](DOTA)LI[Cysteamide] (thioether (positions not given here) via Pyridine(2,6-diCH2); not fully specified (bridges); printed as AGLU-Glutar-Asp-Trp-5Clw-Hyp-Glu-leu-[Cys(2Lut)-Apc(DOTA)-Leu-Ile-AET]) [AGLU-Glutar-Asp-Trp-5Clw-Hyp-Glu-leu-[Cys(2Lut)-Apc(DOTA)-Leu-Ile-AET]]",> 9 pkd,> 8 pic50,> 15 min,–
DWXXEXCXLIC (AGLU-Glutar; 5Clw; Hyp; D-leu; Apc(DOTA); 2Lut bridge Cys-Cys; APAc; D-glu(AGLU); C-term NH2) [AGLU-Glutar-Asp-Trp-5Clw-Hyp-Glu-leu-[Cys(2Lut)-Apc(DOTA)-Leu-Ile-Cys]-APAc-glu(AGLU)-NH2],> 9 pkd,> 8 pic50,> 15 min,–

# Further lines, results first:
pKD [1],pIC50 [2],t1/2 [3],pIC50 [4],Binder
> 9 pkd,> 8 pic50,> 15 min,–,"Ac-DW[Trp(5-Cl)][Hyp][hSer][dL]C[Thp]LIC-NH2 (linker 7-11 via Pyridine(2,6-diCH2); SMILES CC[C@H](C)[C@@H]1NC(=O)[C@H](CC(C)C)NC(=O)C2(CCOCC2)NC(=O)[C@@H](NC(=O)[C@@H](CC(C)C)NC(=O)[C@H](CCO)NC(=O)[C@@H]2C[C@@H](O)CN2C(=O)[C@H](Cc2c[nH]c3ccc(Cl)cc23)NC(=O)[C@H](Cc2c[nH]c3ccccc23)NC(=O)[C@H](CC(=O)O)NC(C)=O)CSCc2cccc(n2)CSC[C@@H](C(N)=O)NC1=O) [Ac-Asp-Trp-5Clw-Hyp-Hse-leu-[Cys(2Lut)-Thp-Leu-Ile-Cys]-NH2]"
> 9 pkd,> 8 pic50,> 15 min,–,{DOTA-Ttds}-DW[Trp(5-Cl)]PE[dL]C[Aib]LI[Cysteamide] (linker (positions not given here) via mXylylene; not fully specified (bridges); printed as DOTA-Ttds-Asp-Trp-5Clw-Pro-Glu-leu-[Cys(3MeBn)-Aib-Leu-Ile-AET]) [DOTA-Ttds-Asp-Trp-5Clw-Pro-Glu-leu-[Cys(3MeBn)-Aib-Leu-Ile-AET]]
> 9 pkd,> 8 pic50,> 15 min,–,{DOTA-Ttds}-DW[Trp(5-Cl)][Pro(4S-NH2)]E[dL]C[Aib]LI[Cysteamide] (linker 7-11 via mXylylene) [DOTA-Ttds-Asp-Trp-5Clw-4Ap-Glu-leu-[Cys(3MeBn)-Aib-Leu-Ile-AET]]
> 9 pkd,> 8 pic50,> 15 min,–,"Ac-SW[Trp(5-Cl)][Hyp]E[dL]C[Thp]LIC-NH2 (linker 7-11 via Pyridine(2,6-diCH2); SMILES CC[C@H](C)[C@@H]1NC(=O)[C@H](CC(C)C)NC(=O)C2(CCOCC2)NC(=O)[C@@H](NC(=O)[C@@H](CC(C)C)NC(=O)[C@H](CCC(=O)O)NC(=O)[C@@H]2C[C@@H](O)CN2C(=O)[C@H](Cc2c[nH]c3ccc(Cl)cc23)NC(=O)[C@H](Cc2c[nH]c3ccccc23)NC(=O)[C@H](CO)NC(C)=O)CSCc2cccc(n2)CSC[C@@H](C(N)=O)NC1=O) [Ac-Ser-Trp-5Clw-Hyp-Glu-leu-[Cys(2Lut)-Thp-Leu-Ile-Cys]-NH2]"
> 9 pkd,> 8 pic50,> 15 min,–,{DOTA-Ttds}-DW[Trp(5-Cl)]PE[dL]C[Api](Ac)LI[Cysteamide] (linker (positions not given here) via mXylylene; not fully specified (bridges); printed as DOTA-Ttds-Asp-Trp-5Clw-Pro-Glu-leu-[Cys(3MeBn)-Apc(Ac)-Leu-Ile-AET]) [DOTA-Ttds-Asp-Trp-5Clw-Pro-Glu-leu-[Cys(3MeBn)-Apc(Ac)-Leu-Ile-AET]]
> 9 pkd,> 8 pic50,> 15 min,–,"Ac-[hSer]W[Trp(5-Br)][Hyp]E[dL]C[Thp]LIC-NH2 (linker 7-11 via Pyridine(2,6-diCH2); SMILES CC[C@H](C)[C@@H]1NC(=O)[C@H](CC(C)C)NC(=O)C2(CCOCC2)NC(=O)[C@@H](NC(=O)[C@@H](CC(C)C)NC(=O)[C@H](CCC(=O)O)NC(=O)[C@@H]2C[C@@H](O)CN2C(=O)[C@H](Cc2c[nH]c3ccc(Br)cc23)NC(=O)[C@H](Cc2c[nH]c3ccccc23)NC(=O)[C@H](CCO)NC(C)=O)CSCc2cccc(n2)CSC[C@@H](C(N)=O)NC1=O) [Ac-Hse-Trp-5Brw-Hyp-Glu-leu-[Cys(2Lut)-Thp-Leu-Ile-Cys]-NH2]"
> 9 pkd,> 8 pic50,> 15 min,–,{DOTA-Ttds}-DW[Trp(5-Cl)][Pro(trans-4-NH2)]E[dL]C[Aib]LI[Cysteamide] (linker 7-11 via mXylylene) [DOTA-Ttds-Asp-Trp-5Clw-Tap-Glu-leu-[Cys(3MeBn)-Aib-Leu-Ile-AET]]
> 9 pkd,> 8 pic50,> 15 min,–,"{DOTA-dE(AGLU)-APAc}-DW[Trp(5-Cl)][Hyp]E[dL]C[Thp]LIC-{APAc-dE(AGLU)-NH2} (linker 7-11 via Pyridine(2,6-diCH2)) [DOTA-glu(AGLU)-APAc-Asp-Trp-5Clw-Hyp-Glu-leu-[Cys(2Lut)-Thp-Leu-Ile-Cys]-APAc-glu(AGLU)-NH2]"
> 9 pkd,> 8 pic50,> 15 min,–,"{AGLU-Glutaryl}-DW[Trp(5-Cl)][Hyp]E[dL]C[Thp]LIC-{APAc-dE(AGLU)-K(DOTA)-NH2} (linker 7-11 via Pyridine(2,6-diCH2)) [AGLU-Glutar-Asp-Trp-5Clw-Hyp-Glu-leu-[Cys(2Lut)-Thp-Leu-Ile-Cys]-APAc-glu(AGLU)-Lys(DOTA)-NH2]"
